Results as given in US12365732 (23ANDME, dated 2025).
Positions count from the first letter of the chain named. Names may count otherwise.

T1: hu-CD96 (soluble, isoform 2 extracellular domain) (human, UniProt P40200 22-516, biotinylated in Octet and blocking ELISA)
T1 construct: the assays name only hu-CD96; also called hCD96; biotinylated hu-CD96
T1 sequence: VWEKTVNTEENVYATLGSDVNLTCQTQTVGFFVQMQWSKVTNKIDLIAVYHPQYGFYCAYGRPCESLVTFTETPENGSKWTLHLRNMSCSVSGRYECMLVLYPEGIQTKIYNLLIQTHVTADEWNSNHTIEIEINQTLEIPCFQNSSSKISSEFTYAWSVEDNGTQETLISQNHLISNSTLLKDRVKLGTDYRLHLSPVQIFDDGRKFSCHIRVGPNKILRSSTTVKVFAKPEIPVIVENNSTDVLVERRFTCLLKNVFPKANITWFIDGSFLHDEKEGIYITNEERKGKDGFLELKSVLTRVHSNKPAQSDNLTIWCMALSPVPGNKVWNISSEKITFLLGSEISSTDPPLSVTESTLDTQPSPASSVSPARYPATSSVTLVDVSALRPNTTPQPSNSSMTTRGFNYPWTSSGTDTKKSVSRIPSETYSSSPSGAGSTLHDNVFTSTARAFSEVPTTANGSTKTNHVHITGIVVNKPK

T2: cy-CD96 (soluble, extracellular domain) (cynomolgus monkey, UniProt P40200 22-516 (human entry), biotinylated in Octet and blocking ELISA)
T2 construct: the assays name only cy-CD96; also called biotinylated cy-CD96
T2 chain: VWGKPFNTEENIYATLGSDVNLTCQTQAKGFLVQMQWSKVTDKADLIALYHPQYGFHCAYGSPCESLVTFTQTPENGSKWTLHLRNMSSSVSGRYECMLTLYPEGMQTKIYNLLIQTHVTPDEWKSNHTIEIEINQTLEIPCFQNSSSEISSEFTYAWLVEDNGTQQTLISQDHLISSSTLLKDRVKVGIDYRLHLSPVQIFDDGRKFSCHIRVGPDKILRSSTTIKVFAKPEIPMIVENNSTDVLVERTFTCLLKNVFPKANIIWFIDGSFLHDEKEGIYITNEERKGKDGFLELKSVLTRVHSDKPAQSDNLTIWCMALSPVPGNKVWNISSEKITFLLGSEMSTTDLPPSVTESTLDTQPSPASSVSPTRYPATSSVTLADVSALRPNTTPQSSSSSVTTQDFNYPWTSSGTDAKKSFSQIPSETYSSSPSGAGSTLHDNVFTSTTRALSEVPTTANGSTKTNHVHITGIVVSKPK

T3: hu-CD96 isoform 2 on CHO cells (human, UniProt P40200 22-585)
T3 construct: also called CHO-CD96 (isoform 2); CD96-CHOs
T3 sequence: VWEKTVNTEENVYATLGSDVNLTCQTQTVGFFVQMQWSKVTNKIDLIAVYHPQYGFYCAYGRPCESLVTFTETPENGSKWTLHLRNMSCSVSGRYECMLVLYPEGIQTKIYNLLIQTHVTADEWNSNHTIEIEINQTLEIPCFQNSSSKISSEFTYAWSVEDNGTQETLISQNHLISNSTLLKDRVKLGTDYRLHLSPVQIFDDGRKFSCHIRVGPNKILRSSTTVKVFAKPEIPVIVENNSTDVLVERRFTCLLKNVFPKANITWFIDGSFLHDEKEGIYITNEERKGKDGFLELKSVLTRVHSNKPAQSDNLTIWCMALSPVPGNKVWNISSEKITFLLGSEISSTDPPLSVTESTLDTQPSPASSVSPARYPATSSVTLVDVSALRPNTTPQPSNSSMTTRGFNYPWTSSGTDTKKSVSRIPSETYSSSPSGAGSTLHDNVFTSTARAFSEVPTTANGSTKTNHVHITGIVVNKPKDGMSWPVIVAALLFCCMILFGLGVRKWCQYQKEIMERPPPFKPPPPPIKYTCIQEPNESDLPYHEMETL

T4: hCD155 (Table 28) (human, UniProt P15151 21-343, limits assumed)
T4 sequence (looked up): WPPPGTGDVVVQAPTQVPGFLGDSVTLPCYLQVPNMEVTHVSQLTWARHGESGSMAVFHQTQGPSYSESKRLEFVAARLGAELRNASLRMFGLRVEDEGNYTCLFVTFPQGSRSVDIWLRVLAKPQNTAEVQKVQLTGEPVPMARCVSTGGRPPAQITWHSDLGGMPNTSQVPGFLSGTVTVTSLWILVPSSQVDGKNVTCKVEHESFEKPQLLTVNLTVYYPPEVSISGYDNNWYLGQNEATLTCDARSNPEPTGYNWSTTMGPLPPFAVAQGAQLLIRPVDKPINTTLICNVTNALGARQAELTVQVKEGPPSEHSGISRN

B1: mAb1.v7.NGS9 Fab (Fab, V domains shown)
VH: EVQLVQSGAEVKKPGASVKVSCKASGFTFTNNFMHWVRQAPGQGLEWIGMIHANSGITNINEKFKNRVTMTTDTSTSTAYMELRSLRSEDTAVYYCRSDGVYEGYFDYWGQGTLVTVSS
VL: DIQLTQSPSSLSASVGDRVTITCKASQNVGTAIVWYQQKPGKAPKVLIYSASTRYTGVPSRFSGSGSGTDFTLTISSLQPEDFATYYCQQYSSSPLTFGQGTKVEIK
notes: also called W33F/P52aA/T97V
B2: mAb1.v7.NGS8 IgG (antibody, V domains shown)
VH: B1 VH with V101I
VL: DIQLTQSPSSLSASVGDRVTITCKASQNVGTAIVWYQQKPGKAPKVLIYSASTRYTGVPSRFSGSGSGTDFTLTISSLQPEDFATYYCQQYSSSPLTFGQGTKVEIKG
notes: human IgG1 N297G
B3: mAb1.v7.NGS10 Fab (Fab, V domains shown)
VH: B1 VH with M50F, V101I
VL: B1 VL
notes: Fab; also called W33F/M50F/P52aA/T97I
B4: mAb1.v7.NGS11 Fab (Fab, V domains shown)
VH: B1 VH with M50F
VL: B1 VL
notes: also called W33F/M50F/P52aA/T97V
B5: hu-CD226 His tag (receptor, human, UniProt Q15762 19-247, looked up)
chain: EEVLWHTSVPFAENMSLECVYPSMGILTQVEWFKIGTQQDSIAIFSPTHGMVIRKPYAERVYFLNSTMASNNMTLFFRNASEDDVGYYSCSLYTYPQGTWQKVIQVVQSDSFEAAVPSNSHIVSEPGKNVTLTCQPQMTWPVQAVRWEKIQPRQIDLLTYCNLVHGRNFTSKFPRQIVSNCSHGRWSVIVIPDVTVSDSGLYRCYLQASAGENETFVMRLTVAEGKTDN
modifications: biotinylated

Assays:
[1] = biological target: T5, hu-CD96 Fc (human, biotinylated in Table 16); test: SPR (Biacore), Fab
T5 construct: also called biotinylated hu-CD96-Fc

[2] = biological target: T6, cy-CD96 Fc (cynomolgus monkey, biotinylated in Table 16); test: SPR (Biacore), Fab
T6 construct: also called biotinylated cy-CD96-Fc

[3] = biological target: T1, hu-CD96 (soluble, isoform 2 …); test: CD155 blocking ELISA
[4] = biological target: T2, cy-CD96 (soluble, extracellular domain); test: CD155 blocking ELISA
[5] = biological target: T1, hu-CD96 (soluble, isoform 2 …); test: BLI (Octet), biotin-CD96 on SA, Fab analyte
[6] = biological target: T2, cy-CD96 (soluble, extracellular domain); test: BLI (Octet), biotin-CD96 on SA, Fab analyte
[7] = biological target: T3, hu-CD96 isoform 2 on CHO cells; test: FACS, CD155-Fc-FLAG 10 nM, Ab 4 nM
Description: (§1) CHO cells stably expressing isoform 2 of hu-CD96 (Origene, catalog #RC221005) were incubated with anti-CD96 antibodies for 20 minutes at 4° C. The cells were washed, and then incubated with 10 nM human CD155-Fc-FLAG for 30 minutes at 4° C. Cells were washed, and then human CD155-Fc-FLAG binding was detected by incubation with anti-FLAG-APC (Columbia Biosciences, catalog #D3-1718-1MG) for 20 minutes at 4° C. Cell binding was analyzed by flow cytometry with a CytoFLEX (Beckman Coulter). CD155 binding is represented as median fluorescence intensity (MedFI).
(§2) As shown in Table 20 (below), the anti-CD96 antibodies, mAb1.v7.NGS8, mAb1.v7.NGS9, mAb1.v7.NGS10, mAb1.v7.NGS11, and h10G1 inhibited soluble hu-CD155 binding to CD96-expressing CHO cells dose-dependently and potently. The antibody NK92.39 (Fuchs et al., 2004; Biolegend catalog #338405) inhibited receptor binding similarly.

[8] = biological target: T3, hu-CD96 isoform 2 on CHO cells; test: FACS, CD155-Fc-FLAG 10 nM, Ab 20 nM
Description: as §1, §2

[9] = biological target: T3, hu-CD96 isoform 2 on CHO cells; test: FACS, CD155-Fc-FLAG 10 nM, Ab 0.8 nM
Description: as §1, §2

[10] = biological target: T3, hu-CD96 isoform 2 on CHO cells; test: FACS, CD155-Fc-FLAG 10 nM, Ab 100 nM
Description: as §1, §2

[11] = biological target: T3, hu-CD96 isoform 2 on CHO cells; test: FACS, CD155-Fc-FLAG 10 nM, Ab 0.16 nM
Description: as §1, §2

[12] = biological target: T3, hu-CD96 isoform 2 on CHO cells; test: FACS, CD155-Fc-FLAG 10 nM, Ab 0.032 nM
Description: as §1, §2

[13] = biological target: T3, hu-CD96 isoform 2 on CHO cells; test: FACS, CD155-Fc-FLAG 10 nM, Ab 0.0064 nM
Description: as §1, §2

[14] = biological target: T5, hu-CD96 Fc; test: SPR 37C, biotin-CD96-Fc captured, IgG analyte
Description: Briefly, a 1:4 dilution of Biotin CAPture Reagent (GE Healthcare) into HBS-EP buffer (0.01 M HEPES pH 7.4, 0.15 M NaCl, 3 mM EDTA, 0.005% Surfactant P20) was applied to the chip at 2 µL/min flow rate. For the kinetics measurements, 20 nM biotinylated hu-CD96-Fc and cy-CD96-Fc was captured at 10 µL/min to achieve ~50 response units in the second flow cell (FC2). FC1 was kept as a reference. Next, 4-fold serial dilutions of IgG in HBS-P buffer (0.01 M HEPES pH 7.4, 0.15 M NaCl, 0.005% surfactant P20) from low (3.125 nM) to high (200 nM) concentration were injected (flow rate: 10 µL/min) at 37° C. The sensorgram was recorded and subject to reference and buffer subtraction before evaluating by BIACORE® 8K Evaluation Software (version 1.1.1.7442). Association rates ($kon$) and dissociation rates ($koff$) were calculated using a simple one-to-one Langmuir binding model. The equilibrium dissociation constant (K_D) value was calculated as the ratio of $koff/kon$.

[15] = biological target: T3, hu-CD96 isoform 2 on CHO cells; test: FACS, blocks 10 nM CD155-Fc-FLAG binding to CD96-CHO
Description: as §1, §2

[16] = biological target: T4, hCD155 (Table 28); test: SPR 25C, biotin-CD226-His captured, steady state fitting
Description: To determine the binding affinity to hu-CD226 and cy-CD226 of mAb1.v7.NGS8, h10G1, hCD155 and anti-hCD226 antibody DX11 (Abcam, cat #Ab33397), SPR measurement with a BIACORE™ 8K instrument was performed. Briefly, a 1:4 dilution of Biotin CAPture Reagent (GE Healthcare) into HBS-EP buffer (0.01 M HEPES pH 7.4, 0.15 M NaCl, 3 mM EDTA, 0.005% Surfactant P20) was applied to the chip at 2 µL/min flow rate. For the kinetics measurements, 5 µg/ml of biotinylated hu-CD226 His tag (Sino biological, cat #10565-H08H) and cy-CD226 His tag (Arco biosystems, cat #DN1-052H9) was captured at 10 µL/min to achieve ~50 response units in the second flow cell (FC2). FC1 was kept as a reference. Next, 3-fold serial dilutions of IgG in HBS-P buffer (0.01 M HEPES pH 7.4, 0.15 M NaCl, 0.005% surfactant P20) from low (1.3 nM) to high (1000 nM) concentration were injected (flow rate: 30 µL/min) at 25° C. The sensorgram was recorded and subject to reference and buffer subtraction before evaluating by BIACORE® 8K Evaluation Software (version 1.1.1.7442). Association rates ($kon$) and dissociation rates ($koff$) were calculated using a simple one-to-one Langmuir binding model. The equilibrium dissociation constant (K_D) value was calculated as the ratio of $koff/kon$. […]

| Binder | Kd [1] [nM] | koff [1] [s⁻¹] | kon [1] [M⁻¹ s⁻¹] | Kd [2] [nM] | koff [2] [s⁻¹] | kon [2] [M⁻¹ s⁻¹] | IC50 [3] [nM] | IC50 [4] [nM] | also measured |
| --- | --- | --- | --- | --- | --- | --- | --- | --- | --- |
| B1 | 5.85 | 8.32e-05 | 14200 | 16.7 | 0.000414 | 24800 | 0.78 | 0.73 | Kd [5]: 0.1 nM; Kd [6]: 82 nM |
| B2 |  |  |  |  |  |  |  |  | CD155-Fc binding (MedFI) [7]: 4960 MedFI; CD155-Fc binding (MedFI) [8]: 4290 MedFI; CD155-Fc binding (MedFI) [9]: 23600 MedFI; CD155-Fc binding (MedFI) [10]: 4180 MedFI; CD155-Fc binding (MedFI) [11]: 52900 MedFI; CD155-Fc binding (MedFI) [12]: 47800 MedFI; CD155-Fc binding (MedFI) [13]: 49200 MedFI; Kd [14]: 0.15 nM; koff [14]: 1.99e-05 s⁻¹; kon [14]: 129000 M⁻¹ s⁻¹; IC50 [15]: 0.76 nM |
| B3 | 2.1 | 2.6e-05 | 12100 | 30 | 0.000343 | 11400 | 0.54 | 0.84 |  |
| B4 | 2.62 | 2.75e-05 | 10500 | 19.1 | 0.000215 | 11200 | 0.59 | 0.95 |  |
| B5 |  |  |  |  |  |  |  |  | Kd [16]: 161 nM |
